Key:
Assay in all cases: enzyme inhibition assay
[1] = target: MMP-14 catalytic domain (MMP-14CAT) (UniProt P50281 114-287)
[2] = target: MMP-10 catalytic domain (MMP-10CAT) (UniProt P09238 99-263)
[3] = target: T1, human MMP-9 catalytic domain (MMP-9CAT), residues 107-215, 391-443 (human, UniProt P14780 107-215; P14780 391-443)
T1 chain (looked up): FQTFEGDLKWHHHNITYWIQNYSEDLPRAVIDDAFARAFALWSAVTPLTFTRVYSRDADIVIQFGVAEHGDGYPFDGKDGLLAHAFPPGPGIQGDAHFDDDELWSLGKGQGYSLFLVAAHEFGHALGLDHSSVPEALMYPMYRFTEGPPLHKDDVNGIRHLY

[4] = target: T2, MMP-1 catalytic domain (MMP-1CAT) (UniProt P03956 100-269)
T2 sequence (looked up): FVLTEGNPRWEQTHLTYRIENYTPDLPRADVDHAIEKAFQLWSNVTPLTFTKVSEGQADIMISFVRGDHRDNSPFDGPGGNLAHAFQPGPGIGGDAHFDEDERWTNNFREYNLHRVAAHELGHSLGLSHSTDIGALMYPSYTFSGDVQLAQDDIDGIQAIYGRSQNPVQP

Chain of MMP-10 catalytic domain (MMP-10CAT) (P09238 99-263): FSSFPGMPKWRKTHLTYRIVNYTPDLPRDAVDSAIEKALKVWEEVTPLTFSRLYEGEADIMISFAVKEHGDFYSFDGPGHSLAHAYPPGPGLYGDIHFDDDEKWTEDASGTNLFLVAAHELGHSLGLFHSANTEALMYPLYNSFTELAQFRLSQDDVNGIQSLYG

B1: N-terminal domain of TIMP-2 (N-TIMP2), wild type (domain or fragment, UniProt P16035 27-152, looked up)
chain: CSCSPVHPQQAFCNADVVIRAKAVSEKEVDSGNDIYGNPIKRIQYEIKQIKMFKGPEKDIEFIYTAPSSAVCGVSLDVGGKKEYLIAGKAEGDGKMHITLCDFIVPWDTLSTTQKKSLNHRYQMGC
Binder B1 has a Ki [1] of 2.52 nM, a Ki [2] of 4.3 nM and a Ki [3] of 0.12 nM. For the same binder, the Ki [4] was 0.25 nM.

— paper PMC5903968 (FEBS letters, 2018)
